Reference: IntAct's records for PubMed 17396155

B1: General receptor for phosphoinositides 1-associated scaffold protein (Rattus norvegicus (Rat)), Q8R4T5 (parent)
chain: MTLRRLRKLQQKEEATAAPDLAGRAPDSEAARAAPTPSGPPAAAAPPGAPGDELYAALEDYHPAELYRALAVSGGTLPRRKGSGFRWKNFTQSPEQQRKVLTLEKGDNQTFGFEIQTYGLHHREEQRVEMVTFVCRVHESSPAQLAGLTPGDTIASVNGLNVEGIRHREIVDIIKASGNVLRLETLYGTSIRKAELEARLQYLKQTLYEKWGEYRSLMVQEQRLVHGLVVKDPSIYDTLESVRSCLYGAGLLPGSLPFGPLLAAPGGARGGSRRAKGDTDDAVYHTCFFGGAEPQALPPPPPPARAPGPGSAETPASVLCPAPRATLSRSASVRCAGPGGGGGGGAPGALWTEAREQALCGAGLRKTKYRSFRRRLLKFIPGLNRSLEEEESQL

Variants of: B1
Details: with grm5_rat Grm5, P31424
Chain of grm5_rat Grm5, P31424 (P31424 whole entry, looked up): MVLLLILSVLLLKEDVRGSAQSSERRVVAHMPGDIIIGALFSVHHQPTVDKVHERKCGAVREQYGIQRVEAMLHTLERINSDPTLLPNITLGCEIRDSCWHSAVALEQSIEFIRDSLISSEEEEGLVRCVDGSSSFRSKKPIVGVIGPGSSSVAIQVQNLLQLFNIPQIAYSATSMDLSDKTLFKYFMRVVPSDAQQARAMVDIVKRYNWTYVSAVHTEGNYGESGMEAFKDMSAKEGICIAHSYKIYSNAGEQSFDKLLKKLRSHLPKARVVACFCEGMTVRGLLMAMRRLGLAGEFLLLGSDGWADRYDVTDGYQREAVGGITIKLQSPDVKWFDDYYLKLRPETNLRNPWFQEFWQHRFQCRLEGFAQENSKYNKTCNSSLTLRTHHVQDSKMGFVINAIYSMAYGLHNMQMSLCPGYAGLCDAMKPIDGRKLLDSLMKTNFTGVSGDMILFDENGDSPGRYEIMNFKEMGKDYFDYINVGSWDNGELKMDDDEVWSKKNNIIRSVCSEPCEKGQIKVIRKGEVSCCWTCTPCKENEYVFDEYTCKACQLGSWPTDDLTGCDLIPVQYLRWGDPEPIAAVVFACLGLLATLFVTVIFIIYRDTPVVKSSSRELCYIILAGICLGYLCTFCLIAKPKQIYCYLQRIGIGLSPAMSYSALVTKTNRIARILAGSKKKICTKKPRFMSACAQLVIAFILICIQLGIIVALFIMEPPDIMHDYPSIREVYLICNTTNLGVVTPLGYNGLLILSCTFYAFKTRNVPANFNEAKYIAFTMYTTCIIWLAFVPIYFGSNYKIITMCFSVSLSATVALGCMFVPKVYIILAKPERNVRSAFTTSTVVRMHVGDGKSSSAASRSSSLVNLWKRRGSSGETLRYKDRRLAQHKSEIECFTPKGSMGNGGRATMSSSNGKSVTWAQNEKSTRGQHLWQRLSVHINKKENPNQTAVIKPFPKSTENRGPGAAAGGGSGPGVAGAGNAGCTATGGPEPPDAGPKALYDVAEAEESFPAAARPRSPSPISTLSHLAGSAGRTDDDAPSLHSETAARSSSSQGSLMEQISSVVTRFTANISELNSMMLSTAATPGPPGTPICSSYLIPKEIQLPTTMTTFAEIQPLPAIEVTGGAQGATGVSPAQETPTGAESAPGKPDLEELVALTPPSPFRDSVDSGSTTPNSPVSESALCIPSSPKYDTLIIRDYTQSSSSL

| Variant | effect of a mutation on the interaction |
| --- | --- |
| E114K | decreasing interaction |
